Source: publication PMC6727773 (Molecular Biology of the Cell, 2019)

Molecular target: T1, His-MPDZ-PDZ1-4 (aa 1-700) WT (human, UniProt O75970-3 1-700)
T1 sequence (looked up): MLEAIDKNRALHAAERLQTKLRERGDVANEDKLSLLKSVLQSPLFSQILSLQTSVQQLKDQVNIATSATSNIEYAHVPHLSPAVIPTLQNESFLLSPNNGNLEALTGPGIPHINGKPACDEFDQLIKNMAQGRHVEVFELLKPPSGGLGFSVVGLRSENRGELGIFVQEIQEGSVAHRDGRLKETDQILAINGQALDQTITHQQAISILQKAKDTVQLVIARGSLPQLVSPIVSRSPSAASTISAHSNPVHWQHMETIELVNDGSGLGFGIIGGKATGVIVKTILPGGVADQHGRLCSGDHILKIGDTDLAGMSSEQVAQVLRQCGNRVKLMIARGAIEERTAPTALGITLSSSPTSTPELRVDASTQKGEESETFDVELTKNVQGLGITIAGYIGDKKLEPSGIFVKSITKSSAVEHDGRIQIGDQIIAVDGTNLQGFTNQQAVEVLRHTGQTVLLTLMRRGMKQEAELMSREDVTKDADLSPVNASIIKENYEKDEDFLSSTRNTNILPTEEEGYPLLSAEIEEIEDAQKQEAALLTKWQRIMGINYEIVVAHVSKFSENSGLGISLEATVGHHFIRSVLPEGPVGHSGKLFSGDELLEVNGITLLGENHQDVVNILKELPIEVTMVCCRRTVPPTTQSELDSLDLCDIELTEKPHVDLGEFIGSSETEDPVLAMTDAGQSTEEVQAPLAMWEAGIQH
Assay: pull-down

- binding result: binds
B1: GST-DAPLE (aa 1908-2028) (domain or fragment, human, UniProt Q9P219 1908-2028, looked up)
chain: IATAGAGAAAAGSGSNSQLLHFSPAAAPAARTKPKAPPRSGEVATITPVRAGLSLSEGDGVPGQGCSEGLPAKSPGRSPDLAPHLGRALEDCSRGSVSKSSPASPEPGGDPQTVWYEYGCV
